Results on 27 sequences are retold here after the supplement of paper PMC9170038.

The data set has as its system MS2 coat protein. Nature of the data set: apparent KD of MS2 coat protein; designed switch direction (-1 OFF switch, 1 ON switch): 1; higher = weaker reporter binding. The procedure, abridged: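 Designed RNA switches were transcribed on Illumina chips by stalled E. coli RNA polymerase and titrated with SNAP-549-labelled MS2 coat protein from 0.7 or 1.5 nM, doubling to 3 µM. Step length ran from 0.8–1.5 h at the lowest concentration to 10–20 min at the highest. The apparent KD is the median over clusters for each design, from curve-fitted normalised cluster fluorescence.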

The mark [1] stands for this setting: input ligand: microRNA oligo, concentration not stated.
[2] abbreviates: Eterna round: R95, input ligand: FMN 200 uM.
Setting [3] is: Eterna round: R95, input ligand: microRNA oligo, concentration not stated.
[4] abbreviates: Eterna round: R95, input ligand: none.

Take “GGUAGGUUACUACCAAUCACAUGAGGAUCACCCAUGUUGUGGGAGGAUAUGGUACCUAUUUGGUACCAGAAGGCCUUAUUAAUU [Fiskers NG3ss - 11] (Eterna round: R96, puzzle: Same State NG 3)”: the “apparent KD of MS2 coat protein” value was 74.8 nM (input ligand: FMN 200 uM), 55.6 nM under setting [1] and 85.2 nM (input ligand: none).
For “GGUAUUAACACAGGAUAUGCUUACGAAACGUAAGCAGAAGGGUGAACAUGAGGAUCACCCAUGUAUGUACCAGGGCGUGAGCCC [JL SSNG1 1.73] (Eterna round: R96, puzzle: Same State NG 1)” the same measures were 137 nM, 510 nM and 1040 nM.
For “GGUCCAGCCUGAGCUGGACAAAAGCAUGUACAUGAGGAUCACCCAUGUCAUGUACAAGCUUUUUGCUCGUCUUAAAG [Mat - hsa-mir-208a - 85] (puzzle: Sensor for hsa-mir-208a)”, the “apparent KD of MS2 coat protein” value by setting is: under setting [2], 195 nM; under setting [3], 18.1 nM; under setting [4], 367 nM.
For “GGUCCAGCCUGAGCUGGACAAAAGCAUGUACAUGAGGAUCACCCAUGUUCAUGUACAAGCUUUUUGCUCGUCUUAGG [salish99_208a_r3_070] (puzzle: Sensor for hsa-mir-208a)” the same measures were 602 nM, 19.8 nM and 401 nM.
“GGUCCAGCCUGAGCUGGACUACAGCAUGUACAUGAGGAUCACCCAUGUCAUGUACAAGAAUGUUGUUUGUCUUAAAA [Sensorship 8 - Jieux - Sensor for hsa-mir-208a] (puzzle: Sensor for hsa-mir-208a)”: the “apparent KD of MS2 coat protein” value under setting [2] amounted to 88.1 nM, the “apparent KD of MS2 coat protein” value under setting [3] was found to be 64.3 nM and the “apparent KD of MS2 coat protein” value under setting [4] amounted to 118 nM.
With “GGUCCAUCAUGAGGAUAUGGCACCUUAUUGGUGCCAGAAGGCAUGUCUAUAGACAUGAGGAUCACCCAUGUUAUAAAUUGGACC [Eli NG1ss - 92] (Eterna round: R96, puzzle: Same State NG 1)”, the “apparent KD of MS2 coat protein” value came out at 20 nM (input ligand: FMN 200 uM), 98.6 nM under setting [1] and 111 nM (input ligand: none).
For “GGUCGGACUCACAUGAGGAUCACCCAUGUUGGCGAAAGCCGGCAGGAUAUCUGUCCGAAAAGGUCAGAGAAGGGCUAACCGACC [Fiskers NG3ss - 60] (Eterna round: R96, puzzle: Same State NG 3)”, the “apparent KD of MS2 coat protein” value (input ligand: FMN 200 uM) is 65.7 nM, the “apparent KD of MS2 coat protein” value under setting [1] amounted to 186 nM and the “apparent KD of MS2 coat protein” value (input ligand: none) amounted to 188 nM.
Regarding “GGUCGGACUCACAUGAGGAUCACCCAUGUUGGCGAAAGCCGGCAGGAUAUCUGUCCGAAAAGGUCAGAGAAGGGUCAACCGACC [Fiskers NG3ss - 59] (Eterna round: R96, puzzle: Same State NG 3)”, the “apparent KD of MS2 coat protein” value (input ligand: FMN 200 uM) came out at 322 nM, the “apparent KD of MS2 coat protein” value under setting [1] is 82.4 nM and the “apparent KD of MS2 coat protein” value (input ligand: none) came out at 267 nM.
For the sequence “GGUGCAAUUAACGCCUACAUGAGGAUCACCCAUGUAUGUAGGCAGGAUAUCGUUUGCUUUGCAAACGAGAAGGGCUAUAGUACC [JL SSNG3 1.15] (Eterna round: R96, puzzle: Same State NG 3)”, the “apparent KD of MS2 coat protein” value (input ligand: FMN 200 uM) worked out at 54.4 nM, the “apparent KD of MS2 coat protein” value under setting [1] is 130 nM and the “apparent KD of MS2 coat protein” value (input ligand: none) stood at 157 nM.
For the sequence “GGUGCCAAUAAAGCCUACAUGAGGAUCACCCAUGUAUGUAGGUAGGAUAUCGUUUGCAAAGCAAACGAGAAGGGCCUAGGCACC [Mat - Same State NG 3 - JL Mod - D58] (Eterna round: R96, puzzle: Same State NG 3)”, the “apparent KD of MS2 coat protein” value (input ligand: FMN 200 uM) turned out to be 27 nM, the “apparent KD of MS2 coat protein” value under setting [1] was found to be 43.7 nM and the “apparent KD of MS2 coat protein” value (input ligand: none) is 53.1 nM.
On to “GGUGGGUUACUACCCACACAUGAGGAUCACCCAUGUAUUGGGAAGGAUAUGGUACCUAUUUGGUACCAGAAGGUCCUGAUGGUG [SS-NG3-LRO15] (Eterna round: R96, puzzle: Same State NG 3)”, for which the “apparent KD of MS2 coat protein” value runs as follows: (input ligand: FMN 200 uM) 1280 nM; under setting [1], 312 nM; (input ligand: none) 1610 nM.
As for “GGUGGGUUACUACCCACACAUGAGGAUCACCCAUGUAUUGGGAAGGAUAUGGUGCCUAUUUGGUACCAGAAGGUCCUGAAGGUG [SS-NG3-LRO17] (Eterna round: R96, puzzle: Same State NG 3)”, the “apparent KD of MS2 coat protein” value was determined as 980 nM (input ligand: FMN 200 uM), 571 nM under setting [1] and 1770 nM (input ligand: none).
On to “GGUGGGUUACUACCCACACAUGAGGAUCACCCAUGUUUUGGGAAGGAUAUGGUACCUAUUUGGUACCAGAAGGUCCUGUUGGUG [SS-NG3-LRO14] (Eterna round: R96, puzzle: Same State NG 3)”, for which the “apparent KD of MS2 coat protein” value (input ligand: FMN 200 uM) amounted to 702 nM, the “apparent KD of MS2 coat protein” value under setting [1] worked out at 445 nM and the “apparent KD of MS2 coat protein” value (input ligand: none) came out at 1020 nM.
With “GGUUUAGUCGAUUGCCGUUGCACUCGAAAACAUGAGGAUCACCCAUGUUUGGGACAAGCUUUGCUCCUCGUCUUUCC [Sous] (puzzle: Sensor for hsa-mir-208a)”, the “apparent KD of MS2 coat protein” value stood at 240 nM under setting [2], 67.1 nM under setting [3] and 453 nM under setting [4].
With “GUAAAACAUGAGGAUCACCCAUGUAAUAUAAUGGGAGGAUAUCUGAUUUAAUUUAAUUUAAGAGAAGGCCUAAAUG [Mat - Same State 1 - Mod of Eli - D57] (puzzle: Same State 1)”, the “apparent KD of MS2 coat protein” value amounted to 39.6 nM under setting [2], 268 nM under setting [3] and 372 nM under setting [4].
Turning to “GUAAUAAAGGAAGGAUAUGGGUAAACGGGAAUCCCAGAAGGUCCACAUGAGGAUCACCCAUGUGGUCCCGAAACCACGGGACCG [Enbive] (Eterna round: R96, puzzle: Same State NG 1)”, the “apparent KD of MS2 coat protein” value amounted to 84.2 nM (input ligand: FMN 200 uM), 60.5 nM under setting [1] and 75 nM (input ligand: none).
Turning to “GUAAUAAUGUAAGGAUAUACAUGAGGAUUUCUCGUAGAAGGUACAAGACAUGAGGAUCACCCAUGUGUCGCUCCGUAGAGCGUA [Mat - Same State NG 1 - JL mod - D15] (Eterna round: R96, puzzle: Same State NG 1)”, the “apparent KD of MS2 coat protein” value reads like this: (input ligand: FMN 200 uM) 297 nM; under setting [1], 168 nM; (input ligand: none) 448 nM.
The like results for “GUACAGAUCAGAGGAUAUCACGUCGAAUAGACGUGAGAAGGCUGAUCACACAUGAAUAUUAGUACAUGAGGAUCACCCAUGUAC [SSNG1/15-A1] (Eterna round: R96, puzzle: Same State NG 1)” were, in that order, 14.5 nM, 12.8 nM and 18 nM.
Regarding “GUACUACAUGAGGAUCACCCAUGUACAAAGGUACGAGGAUAUGCAUGUACGAAAGUAUAUGCAGAAGGCGUAGUAC [Pin2Pin #2] (puzzle: Same State 1)”, the “apparent KD of MS2 coat protein” value under setting [3] stood at 23.3 nM.
For the sequence “GUAGCAUACCGAGGAUAUUCAUAUUAACAUGAGGAUCACCCAUGUUUAGGUCGAUUACGACCUUGGGAGAAGGCGGAAUGCUAC [Xeonanis - 20 Mod33] (Eterna round: R96, puzzle: Same State NG 2)”, the “apparent KD of MS2 coat protein” value stood at 12.3 nM (input ligand: FMN 200 uM), 15.4 nM under setting [1] and 25.5 nM (input ligand: none).
As for “GUAGCAUACCGAGGAUAUUCAUAUUAUACAUGAGGAUCACCCAUGUGGCCACAUUAGUGGCCUUGGGAGAAGGCGGAAUGCUAC [Xeonanis - 20 Mod37] (Eterna round: R96, puzzle: Same State NG 2)”, the “apparent KD of MS2 coat protein” value is, setting by setting: (input ligand: FMN 200 uM) 99.2 nM; under setting [1], 290 nM; (input ligand: none) 669 nM.
The like results for “GUAGUACAUGAGGAUCACCCAUGUUUCCUCCAAGAGUUCUUCGAGGAUAUGUCAUGGAAUCCACAAUAGAAGGCGGAGAACCAA [Eternabot solution 39] (Eterna round: R96, puzzle: Same State NG 3)” were, in that order, 403 nM, 526 nM and 462 nM.
Turning to “GUGCGAGUGCCACAGGAUAUACGUGGAUCGACAUGAGGAUCACCCAUGUAUAUCCUAAUAAUUGCGUAGAAGGGUGGUCAGUCGG [Inzage] (Eterna round: R96, puzzle: Same State 2)”, the “apparent KD of MS2 coat protein” value reads like this: (input ligand: FMN 200 uM) 164 nM; under setting [1], 313 nM; (input ligand: none) 478 nM.
As for “GUGCGAGUGCCACAGGAUAUACGUGGAUCGACAUGAGGAUCACCCAUGUAUAUCCUAAUAAUUGCGUAGAAGGGUGGUCAGUCGG [Inzage] (puzzle: Same State 2)”, the “apparent KD of MS2 coat protein” value under setting [2] was 136 nM, the “apparent KD of MS2 coat protein” value under setting [3] stood at 74.8 nM and the “apparent KD of MS2 coat protein” value under setting [4] came to 105 nM.
In the case of “GUGGUCAAUCAAGGAUAUGGAGCCUUAUUGGCUCCAGAAGGUGGGACAUGAGGAUCACCCAUGUGGCAGUGGUAAAAUGACCAC [Fiskers NG1ss - 37] (Eterna round: R96, puzzle: Same State NG 1)”, the “apparent KD of MS2 coat protein” value runs as follows: (input ligand: FMN 200 uM) 35.6 nM; under setting [1], 56.8 nM; (input ligand: none) 63.4 nM.
As for “GUGGUCAGACAUGAGGAUCACCCAUGUGGAAUAAAUAACACAGAGGAUAUGGAAUAUAAAAUAUACCAGAAGGCUGGAUUGGUG (Eterna round: R96, puzzle: Same State NG 3)”, the “apparent KD of MS2 coat protein” value reads like this: (input ligand: FMN 200 uM) 131 nM; under setting [1], 188 nM; (input ligand: none) 268 nM.
On to “GUGGUCAGACAUGAGGAUCACCCAUGUGGAAUAAAUAACAGACAGGAUAUCAAAUAUAGGAUAUAUGAGAAGGGUCGAUUGGUG (Eterna round: R96, puzzle: Same State NG 3)”, for which, under setting [1], the “apparent KD of MS2 coat protein” value was determined as 81 nM.
